Publication PMC10397247

How the values were obtained:
P2bH1 = target: T1, P2bH1; test: two-hybrid library CCNG1;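 also: natural log of median RNA to DNA barcode read ratio; higher means stronger binding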
T1 chain: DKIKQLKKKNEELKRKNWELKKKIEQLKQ

P3bH1 = target: T2, P3bH1; test: two-hybrid library CCNG1;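 also: natural log of median RNA to DNA barcode read ratio; higher means stronger binding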
T2 chain: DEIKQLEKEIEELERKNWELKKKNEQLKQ

P4bH1 = target: T3, P4bH1; test: two-hybrid library CCNG1;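 also: natural log of median RNA to DNA barcode read ratio; higher means stronger binding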
T3 chain: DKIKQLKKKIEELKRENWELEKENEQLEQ

P5bH1 = target: T4, P5bH1; test: two-hybrid library CCNG1;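 also: natural log of median RNA to DNA barcode read ratio; higher means stronger binding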
T4 chain: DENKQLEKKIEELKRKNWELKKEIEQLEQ

P6bH1 = target: T5, P6bH1; test: two-hybrid library CCNG1;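 also: natural log of median RNA to DNA barcode read ratio; higher means stronger binding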
T5 chain: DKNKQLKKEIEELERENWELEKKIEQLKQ

P7bH1 = target: T6, P7bH1; test: two-hybrid library CCNG1;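 also: natural log of median RNA to DNA barcode read ratio; higher means stronger binding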
T6 chain: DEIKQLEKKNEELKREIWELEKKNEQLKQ

P8bH1 = target: T7, P8bH1; test: two-hybrid library CCNG1
T7 chain: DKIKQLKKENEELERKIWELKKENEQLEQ

P9bH1 = target: T8, P9bH1; test: two-hybrid library CCNG1
T8 chain: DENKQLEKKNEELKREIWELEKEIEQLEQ

4H1579-AA = target: T9, 4H1579-AA; test: two-hybrid library CCmax
T9 chain: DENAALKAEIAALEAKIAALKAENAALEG

4H1597-AA = target: T10, 4H1597-AA; test: two-hybrid library CCmax; details: mean of both orientations
T10 chain: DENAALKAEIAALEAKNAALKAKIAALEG

4H1626-AA = target: T11, 4H1626-AA; test: two-hybrid library CCmax; details: mean of both orientations
T11 chain: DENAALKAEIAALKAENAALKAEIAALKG

4H171-AA = target: T12, 4H171-AA; test: two-hybrid library CCmax; details: mean of both orientations
T12 chain: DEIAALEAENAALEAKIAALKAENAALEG

4H174-AA = target: T13, 4H174-AA; test: two-hybrid library CCmax; details: mean of both orientations
T13 chain: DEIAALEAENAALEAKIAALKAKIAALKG

4H1842-AA = target: T14, 4H1842-AA; test: two-hybrid library CCmax; details: mean of both orientations
T14 chain: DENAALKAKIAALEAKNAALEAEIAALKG

4H1864-AA = target: T15, 4H1864-AA; test: two-hybrid library CCmax; details: mean of both orientations
T15 chain: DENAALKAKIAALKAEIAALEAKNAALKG

4H1877-AA = target: T16, 4H1877-AA; test: two-hybrid library CCmax; details: mean of both orientations
T16 chain: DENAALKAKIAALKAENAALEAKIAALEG

4H2109-AA = target: T17, 4H2109-AA; test: two-hybrid library CCmax; details: mean of both orientations
T17 chain: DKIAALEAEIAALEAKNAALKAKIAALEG

4H2162-AA = target: T18, 4H2162-AA; test: two-hybrid library CCmax; details: mean of both orientations
T18 chain: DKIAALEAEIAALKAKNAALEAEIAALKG

4H2253-AA = target: T19, 4H2253-AA; test: two-hybrid library CCmax; details: mean of both orientations
T19 chain: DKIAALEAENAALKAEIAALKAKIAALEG

4H2274-AA = target: T20, 4H2274-AA; test: two-hybrid library CCmax; details: mean of both orientations
T20 chain: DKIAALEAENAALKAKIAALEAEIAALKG

4H2330-AA = target: T21, 4H2330-AA; test: two-hybrid library CCmax; details: mean of both orientations
T21 chain: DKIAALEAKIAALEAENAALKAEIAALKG

4H2389-AA = target: T22, 4H2389-AA; test: two-hybrid library CCmax; details: mean of both orientations
T22 chain: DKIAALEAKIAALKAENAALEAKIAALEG

4H2438-AA = target: T23, 4H2438-AA; test: two-hybrid library CCmax; details: mean of both orientations
T23 chain: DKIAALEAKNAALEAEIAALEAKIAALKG

4H2473-AA = target: T24, 4H2473-AA; test: two-hybrid library CCmax; details: mean of both orientations
T24 chain: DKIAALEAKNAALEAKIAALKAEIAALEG

4H2649-AA = target: T25, 4H2649-AA; test: two-hybrid library CCmax; details: mean of both orientations
T25 chain: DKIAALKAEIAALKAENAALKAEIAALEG

4H2698-AA = target: T26, 4H2698-AA; test: two-hybrid library CCmax; details: mean of both orientations
T26 chain: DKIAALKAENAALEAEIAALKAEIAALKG

4H2725-AA = target: T27, 4H2725-AA; test: two-hybrid library CCmax; details: mean of both orientations
T27 chain: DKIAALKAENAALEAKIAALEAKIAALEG

4H2865-AA = target: T28, 4H2865-AA; test: two-hybrid library CCmax
T28 chain: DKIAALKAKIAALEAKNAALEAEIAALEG

4H3009-AA = target: T29, 4H3009-AA; test: two-hybrid library CCmax; details: mean of both orientations
T29 chain: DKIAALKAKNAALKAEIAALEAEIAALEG

4H3016-AA = target: T30, 4H3016-AA; test: two-hybrid library CCmax; details: mean of both orientations
T30 chain: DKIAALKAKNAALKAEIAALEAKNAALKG

4H310-AA = target: T31, 4H310-AA; test: two-hybrid library CCmax; details: mean of both orientations
T31 chain: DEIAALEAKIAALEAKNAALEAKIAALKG

4H3120-AA = target: T32, 4H3120-AA; test: two-hybrid library CCmax; details: mean of both orientations
T32 chain: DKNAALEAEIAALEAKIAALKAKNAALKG

4H3130-AA = target: T33, 4H3130-AA; test: two-hybrid library CCmax
T33 chain: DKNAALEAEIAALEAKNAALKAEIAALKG

4H3165-AA = target: T34, 4H3165-AA; test: two-hybrid library CCmax; details: mean of both orientations
T34 chain: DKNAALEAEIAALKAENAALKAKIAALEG

4H3381-AA = target: T35, 4H3381-AA; test: two-hybrid library CCmax; details: mean of both orientations
T35 chain: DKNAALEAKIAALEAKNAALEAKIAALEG

4H3395-AA = target: T36, 4H3395-AA; test: two-hybrid library CCmax; details: mean of both orientations
T36 chain: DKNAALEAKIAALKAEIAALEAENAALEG

4H3410-AA = target: T37, 4H3410-AA; test: two-hybrid library CCmax; details: mean of both orientations
T37 chain: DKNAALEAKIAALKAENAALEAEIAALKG

4H3590-AA = target: T38, 4H3590-AA; test: two-hybrid library CCmax; details: mean of both orientations
T38 chain: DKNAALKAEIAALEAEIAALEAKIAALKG

4H3697-AA = target: T39, 4H3697-AA; test: two-hybrid library CCmax; details: mean of both orientations
T39 chain: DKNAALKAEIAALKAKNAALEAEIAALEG

4H3753-AA = target: T40, 4H3753-AA; test: two-hybrid library CCmax; details: mean of both orientations
T40 chain: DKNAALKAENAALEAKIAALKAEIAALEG

4H3865-AA = target: T41, 4H3865-AA; test: two-hybrid library CCmax; details: mean of both orientations
T41 chain: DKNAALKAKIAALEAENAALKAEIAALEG

4H458-AA = target: T42, 4H458-AA; test: two-hybrid library CCmax; details: mean of both orientations
T42 chain: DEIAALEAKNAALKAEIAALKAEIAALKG

4H485-AA = target: T43, 4H485-AA; test: two-hybrid library CCmax; details: mean of both orientations
T43 chain: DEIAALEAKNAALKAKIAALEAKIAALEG

4H536-AA = target: T44, 4H536-AA; test: two-hybrid library CCmax; details: mean of both orientations
T44 chain: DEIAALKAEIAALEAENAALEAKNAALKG

4H570-AA = target: T45, 4H570-AA; test: two-hybrid library CCmax; details: mean of both orientations
T45 chain: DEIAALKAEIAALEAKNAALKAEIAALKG

4H629-AA = target: T46, 4H629-AA; test: two-hybrid library CCmax; details: mean of both orientations
T46 chain: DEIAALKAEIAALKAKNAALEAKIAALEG

4H710-AA = target: T47, 4H710-AA; test: two-hybrid library CCmax; details: mean of both orientations
T47 chain: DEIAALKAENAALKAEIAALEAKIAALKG

4H745-AA = target: T48, 4H745-AA; test: two-hybrid library CCmax; details: mean of both orientations
T48 chain: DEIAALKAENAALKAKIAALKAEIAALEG

4H797-AA = target: T49, 4H797-AA; test: two-hybrid library CCmax; details: mean of both orientations
T49 chain: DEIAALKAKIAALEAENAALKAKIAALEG

4H850-AA = target: T50, 4H850-AA; test: two-hybrid library CCmax; details: mean of both orientations
T50 chain: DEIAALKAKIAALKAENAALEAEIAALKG

4H891-AA = target: T51, 4H891-AA; test: two-hybrid library CCmax; details: mean of both orientations
T51 chain: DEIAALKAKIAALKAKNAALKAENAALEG

4H909-AA = target: T52, 4H909-AA; test: two-hybrid library CCmax; details: mean of both orientations
T52 chain: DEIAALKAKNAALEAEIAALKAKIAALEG

4H930-AA = target: T53, 4H930-AA; test: two-hybrid library CCmax; details: mean of both orientations
T53 chain: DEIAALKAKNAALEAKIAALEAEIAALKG

4H94-AA = target: T54, 4H94-AA; test: two-hybrid library CCmax; details: mean of both orientations
T54 chain: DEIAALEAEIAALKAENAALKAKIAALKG

DKIKQLKKKNEELKRKNWELKKKIEQLKQ [P2bH1] was tested, and the interaction score (P2bH1) was -0.432, the interaction score (P3bH1) was -0.234 and the interaction score (P4bH1) was -0.137. It also gave an interaction score (P5bH1) of -0.796, an interaction score (P6bH1) of -1.16 and an interaction score (P7bH1) of 0.231. For the same binder, the interaction score (P8bH1) was -0.331 and the interaction score (P9bH1) was 0.693.

In the case of DENAALKAEIAALEAKIAALKAENAALEG [4H1579-AA], the interaction score (4H1579-AA) is reported as 0.482, the interaction score (4H1597-AA) is reported as -0.651 and the interaction score (4H1626-AA) is reported as -1.19. It also gave an interaction score (4H171-AA) of -1.67, an interaction score (4H174-AA) of -0.805 and an interaction score (4H1842-AA) of -2.03. The interaction score (4H1864-AA) was 2.38, the interaction score (4H1877-AA) was -0.858 and the interaction score (4H2109-AA) was 0.8. The interaction score (4H2162-AA) was -1.63, the interaction score (4H2253-AA) was -1.23 and the interaction score (4H2274-AA) was -1.24. For the same binder, the interaction score (4H2330-AA) was -1.81, the interaction score (4H2389-AA) was -1.56 and the interaction score (4H2438-AA) was -1.18. It also gave an interaction score (4H2473-AA) of -1.09, an interaction score (4H2649-AA) of -1.11 and an interaction score (4H2698-AA) of -1.29. The interaction score (4H2725-AA) was -1.31, the interaction score (4H2865-AA) was -1.53 and the interaction score (4H3009-AA) was -2.01. It also gave an interaction score (4H3016-AA) of 0.0969, an interaction score (4H310-AA) of -1.28 and an interaction score (4H3120-AA) of 0.595. The interaction score (4H3130-AA) was -1.12, the interaction score (4H3165-AA) was -1.86 and the interaction score (4H3381-AA) was -1.48. It also gave an interaction score (4H3395-AA) of 0.656, an interaction score (4H3410-AA) of -1.51 and an interaction score (4H3590-AA) of 1.2. For the same binder, the interaction score (4H3697-AA) was -1.92, the interaction score (4H3753-AA) was 1.01 and the interaction score (4H3865-AA) was -1.22. The interaction score (4H458-AA) was -1.8, the interaction score (4H485-AA) was -0.986 and the interaction score (4H536-AA) was 0.42. It also gave an interaction score (4H570-AA) of -0.453, an interaction score (4H629-AA) of -1.42 and an interaction score (4H710-AA) of -1.33. The interaction score (4H745-AA) was 1.21, the interaction score (4H797-AA) was -1.46 and the interaction score (4H850-AA) was -1.18. For the same binder, the interaction score (4H891-AA) was -1, the interaction score (4H909-AA) was -1.94 and the interaction score (4H930-AA) was -1.7. For the same binder, the interaction score (4H94-AA) was -1.21.
